Data published in US20060182736.

Assays:
Assay in all cases: cell_activity
[1] = tested on: TAT-F475-KRAB (QSHR2-RDHT-RSNR) (artificial)
[2] = tested on: TAT-F121-KRAB (QSHT-RSHR-RDHT) (artificial); conditions: 293 cells
[3] = tested on: TAT-F475-p65 (QSHR2-RDHT-RSNR) (artificial); conditions: +/-0.48, 293 cells
[4] = tested on: TAT-F435-KRAB/KOX (QSHR2-RDHT-RSHR) (artificial); conditions: +/-0.35, VEGF mRNA, 293 cells; protein 2.7 fold; H460 3.8 fold at 12 h (p247)
[5] = tested on: TAT-F435-p65 (QSHR2-RDHT-RSHR) (artificial); conditions: +/-0.5, secreted VEGF at 48 h, 293 cells, lysate
TAT-F435-p65 (QSHR2-RDHT-RSHR) (artificial), sequence (chain, as listed by the source): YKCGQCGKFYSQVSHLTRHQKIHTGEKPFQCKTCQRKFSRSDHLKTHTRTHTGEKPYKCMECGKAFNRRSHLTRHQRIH

TAT-F121-KRAB (QSHT-RSHR-RDHT) (artificial), sequence (chain, as listed by the source): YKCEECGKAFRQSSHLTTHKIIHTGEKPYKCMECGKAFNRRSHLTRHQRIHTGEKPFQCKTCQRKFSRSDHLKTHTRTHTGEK
TAT-F475-KRAB (QSHR2-RDHT-RSNR) (artificial), sequence (chain, as listed by the source): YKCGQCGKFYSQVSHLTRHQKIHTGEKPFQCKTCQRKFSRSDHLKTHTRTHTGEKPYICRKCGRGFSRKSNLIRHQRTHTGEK

Substance: native human VEGF promoter in pGL3-basic luciferase reporter
- activity (fold repression) ([1]; 80 ug lysate, HEK293, 1.5 fold at 40 ug, vs TAT-only): 2
- activity (fold repression) ([2]; +/-0.14, purified protein): 2.1
- activity (fold activation) [3]: 2.5

Substance: endogenous VEGF-A gene
- activity (fold repression) ([1]; +/-0.4, VEGF mRNA, 293 cells): 3.1
- activity (fold repression) [4]: 3.1
- activity (fold repression) ([2]; +/-0.01, VEGF mRNA, lysate): 1.7
- activity (fold activation) [5]: 2.5
